Test results from article PMC3319458 (2012).

Biological target: Nfs1/Isd11/Isu2 (SDU) complex (Homo sapiens, UniProt Q9Y697)
Experiment: cysteine desulfurase activity titration

- Kd: 220 nM
B1: Frataxin 82-210 (protein)
chain: GTLGHPGSLDETTYERLAEETLDSLAEFFEDLADKPYTFEDYDVSFGSGVLTVKLGGDLGTYVINKQTPNKQIWLSSPSSGPKRYDWTGKNWVYSHDGVSLHELLAAELTKALKTKLDLSSLAYSGKDA
